From patent publication US20200062844A1

What was measured:
[1] = molecular target: human CD3 expressed in Jurkat cells (human) (UniProt P07766); experiment: flow cytometry, 70 nM antibody on Jurkat/NFAT-luc cells, No IgE
[2] = molecular target: monkey (cynomolgus) FcεR1α expressed on cells (cynomolgus); experiment: flow cytometry, 70 nM antibody on HEK293/mfFcεR1α/hFcεR1β/hFcεR1γ cells pre-incubated with 70 nM human IgE
[3] = molecular target: human FcεR1α expressed on cells (human) (UniProt P12319); experiment: flow cytometry, 70 nM antibody on HEK293/hFcεR1α/hFcεR1β/hFcεR1γ cells, No IgE
Sequence of human FcεR1α expressed on cells (human) (P12319 26-257): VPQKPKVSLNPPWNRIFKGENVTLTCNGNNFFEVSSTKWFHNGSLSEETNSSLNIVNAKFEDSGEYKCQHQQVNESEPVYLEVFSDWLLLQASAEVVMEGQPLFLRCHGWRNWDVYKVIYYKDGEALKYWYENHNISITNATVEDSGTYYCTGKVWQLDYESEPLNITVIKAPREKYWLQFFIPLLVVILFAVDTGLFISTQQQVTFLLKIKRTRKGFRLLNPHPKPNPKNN

[4] = molecular target: human CD3 expressed in Jurkat cells (human) (UniProt P07766); experiment: cell-based or functional assay
[5] = molecular target: human FcεR1α expressed on cells (human) (UniProt P12319); experiment: flow cytometry, 70 nM antibody on HEK293/hFcεR1α/hFcεR1β/hFcεR1γ cells pre-incubated with 70 nM human IgE
[6] = molecular target: monkey (cynomolgus) FcεR1α expressed on cells (cynomolgus); experiment: flow cytometry, 70 nM antibody on HEK293/mfFcεR1α/hFcεR1β/hFcεR1γ cells, No IgE
[7] = molecular target: mfFcεR1α.MMH (cynomolgus (Macaca fascicularis)); experiment: SPR (Biacore 8k), antibody captured on anti-human Fc, mfFcεR1α.MMH injected, 25°C
Sequence of mfFcεR1α.MMH (cynomolgus (Macaca fascicularis)) (chain, as listed by the source limits assumed): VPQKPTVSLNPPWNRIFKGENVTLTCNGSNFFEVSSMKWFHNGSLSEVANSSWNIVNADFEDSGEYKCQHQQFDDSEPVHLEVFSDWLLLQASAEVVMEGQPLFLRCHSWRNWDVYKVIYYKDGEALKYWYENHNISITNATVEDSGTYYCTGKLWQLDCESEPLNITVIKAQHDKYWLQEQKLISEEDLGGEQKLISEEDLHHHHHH

hFcεR1α.MMH (human) [8] = experiment: SPR (Biacore 8k), antibody captured on anti-human Fc, hFcεR1α.MMH injected, 37°C
Sequence of hFcεR1α.MMH (human) (chain, as listed by the source limits assumed): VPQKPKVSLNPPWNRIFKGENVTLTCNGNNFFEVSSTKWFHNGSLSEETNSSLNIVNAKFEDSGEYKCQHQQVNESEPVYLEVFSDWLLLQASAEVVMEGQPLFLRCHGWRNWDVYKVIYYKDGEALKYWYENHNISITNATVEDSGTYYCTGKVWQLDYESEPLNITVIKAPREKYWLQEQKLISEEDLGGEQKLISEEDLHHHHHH

hFcεR1α.MMH (human) [9] = experiment: SPR (Biacore 8k), antibody captured on anti-human Fc, hFcεR1α.MMH injected, 25°C
[10] = molecular target: mfFcεR1α.MMH (cynomolgus (Macaca fascicularis)); experiment: SPR (Biacore 8k), antibody captured on anti-human Fc, mfFcεR1α.MMH injected, 37°C

Sequence of human CD3 expressed in Jurkat cells (human) (P07766 23-207 limits assumed, chain 1 of 4): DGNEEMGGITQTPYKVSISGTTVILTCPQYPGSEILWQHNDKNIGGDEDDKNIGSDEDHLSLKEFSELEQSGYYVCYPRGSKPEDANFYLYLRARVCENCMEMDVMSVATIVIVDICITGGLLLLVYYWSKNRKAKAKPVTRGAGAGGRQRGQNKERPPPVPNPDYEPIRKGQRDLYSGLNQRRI
Sequence of human CD3 expressed in Jurkat cells (human) (chain, as listed by the source limits assumed, chain 2 of 4): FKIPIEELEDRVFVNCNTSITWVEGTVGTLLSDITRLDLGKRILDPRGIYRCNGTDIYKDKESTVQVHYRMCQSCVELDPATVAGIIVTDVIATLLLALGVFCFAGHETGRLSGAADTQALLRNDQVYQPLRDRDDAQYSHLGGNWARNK
Sequence of human CD3 expressed in Jurkat cells (human) (chain, as listed by the source limits assumed, chain 3 of 4): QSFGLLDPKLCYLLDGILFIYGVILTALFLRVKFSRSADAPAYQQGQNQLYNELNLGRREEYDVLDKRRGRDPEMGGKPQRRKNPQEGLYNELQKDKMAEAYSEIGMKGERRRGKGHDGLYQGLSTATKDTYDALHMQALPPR
Sequence of human CD3 expressed in Jurkat cells (human) (chain, as listed by the source limits assumed, chain 4 of 4): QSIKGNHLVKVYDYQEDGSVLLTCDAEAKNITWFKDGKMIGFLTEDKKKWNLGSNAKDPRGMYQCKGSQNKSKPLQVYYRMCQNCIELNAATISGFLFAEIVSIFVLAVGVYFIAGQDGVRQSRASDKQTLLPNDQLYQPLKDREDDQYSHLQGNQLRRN

Binding Ratio (MFI of Treated/MFI of Unstained) [1]	Binding Ratio (MFI of Treated/MFI of Unstained) [2]	Binding Ratio (MFI of Treated/MFI of Unstained) [3]	Fold Activation, Jurkat/NFAT-luc with HEK293/hFcεR1α/hFcεR1β/hFcεR1γ cells, 10 nM IgE [4]	Fold Activation, Jurkat/NFAT-luc with HEK293/hFcεR1α/hFcεR1β/hFcεR1γ cells, No IgE [4]	Binding Ratio (MFI of Treated/MFI of Unstained) [5]	Binding Ratio (MFI of Treated/MFI of Unstained) [6]	600 nM mfFceR1a.MMH Bound (RU) [7]	600 nM hFcεR1α.MMH Bound (RU) (hFcεR1α.MMH (human) [8])	600 nM hFcεR1α.MMH Bound (RU) (hFcεR1α.MMH (human) [9])	600 nM mfFceR1a.MMH Bound (RU) [10]	Substance
1	1	1	1 fold	1 fold	1	1	–	–	–	–	Human IgG4 Control (antibody)
2	1	1	1 fold	1 fold	1	1	–	–	–	–	Human IgG4 Stealth Control (antibody)
–	–	–	–	–	–	–	-9 RU	-2 RU	-5 RU	-9 RU	Isotype Control mAb (antibody)
